35 molecules from US20240409645A1 can be followed below.

Numbering of substitutions follows the chain as printed.

The chains are these.
T1: mouse IL-2Rγ (mouse) (UniProt P34902)
T1 sequence (looked up): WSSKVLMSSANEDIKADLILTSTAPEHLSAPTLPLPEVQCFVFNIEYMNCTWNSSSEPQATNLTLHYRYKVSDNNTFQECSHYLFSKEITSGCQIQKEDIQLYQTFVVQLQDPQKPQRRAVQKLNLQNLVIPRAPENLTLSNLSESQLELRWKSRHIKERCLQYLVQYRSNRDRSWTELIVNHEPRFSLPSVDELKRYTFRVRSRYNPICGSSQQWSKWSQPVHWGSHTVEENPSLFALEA

T2: mouse IL-2Rα (mouse) (UniProt P01590)
T2 sequence (looked up): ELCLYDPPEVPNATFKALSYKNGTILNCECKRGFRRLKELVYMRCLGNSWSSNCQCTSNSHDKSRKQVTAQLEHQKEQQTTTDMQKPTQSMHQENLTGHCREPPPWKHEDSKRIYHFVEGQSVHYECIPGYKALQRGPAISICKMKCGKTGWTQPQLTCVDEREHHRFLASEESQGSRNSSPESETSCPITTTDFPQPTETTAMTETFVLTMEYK

B1: FJ1427_P035MP04G09 (VHH)
VHH: QVQLQESGGGLVQAGGSLRLSCAASGPTFSRVAVGWFRQVPGKEREFVAAVNRPATMTKYADSVKGRFTISRDNAKNTVDLQMNSMKPEDTAVYYCAADSVPYGRPYYFQTSAGEYDYWGQGTQVTVSS
B2: FJ1427_P035MP04A11 (VHH)
VHH: B1 VHH with Q5V, G16E, F29A, G35A, A50V, A55G, N74S, D80Y, M86L, E115N
B3: FJ1427_P035MP04C11 (VHH)
VHH: QVQLVESGGGLVQHGGSLRLSCAASGPTFSRVAVGWFRQVPGKEREFVAVVNRPGSMTKYADSVKGRFNISRDTAKNTVYLQMNSLKPEDTAVYYCAADSVPYGRPYYFTTSAGDYDYWGQGTQVTVSS
B4: FJ1427_P035MP04F09 (VHH)
VHH: QVQLVESGGGWVQVGESLRLSCAPSGRTFVRGIMGWFRQAPGKEREFVARIILNNNSTRYTDSVKGRFTISRDSAKNTMWLQMDSLRPEDTAVYYCAARDRYGSGNSLSPSAYDYWGQGTQVTVSS
B5: FJ1427_P035MP04D12 (VHH)
VHH: B4 VHH with E16K, R31S, T61I, W80Y
B6: FJ1427_P035MP04H10 (VHH)
VHH: B4 VHH with W11L, V14A, E16G, R31S, T61I, W80Y
B7: FJ1427_P035MP04H11 (VHH)
VHH: B4 VHH with L18P, R31S, A40T, W80Y, D84N, S85T
B8: FJ1427_P035MP04B11 (VHH)
VHH: B4 VHH with Q1E, R31S, T61I, W80Y
B9: FJ1427_P035MP04F10 (VHH)
VHH: B4 VHH with V2L, A23V, R31S, L53S, W80Y, D84N, S85T
B10: FJ1427_P035MP04C12 (VHH)
VHH: B4 VHH with Q1E, R31S, T61I, W80Y
B11: FJ1427_P035MP04B10 (VHH)
VHH: B4 VHH with Q1E, R31S, T61I, W80Y, S126L
B12: FJ1427_P035MP04C10 (VHH)
VHH: B4 VHH with V5Q, A23V, R31S, W80Y, D84N, S85T
B13: FJ1427_P035MP04F11 (VHH)
VHH: B4 VHH with R31S, A40T, M79L, W80Y, D84N, S85T
B14: FJ1427_P035MP04H09 (VHH)
VHH: B4 VHH with Q1E, R31S, W80Y, D84N, S85T
B15: FJ1427_P035MP04G11 (VHH)
VHH: B4 VHH with R31S, K43E, W80Y, D84N, S85T
B16: FJ1427_P035MP04G10 (VHH)
VHH: B4 VHH with R31S, N55S, V64A, W80Y
B17: FJ1427_P035MP04A10 (VHH)
VHH: B4 VHH with Q1E, R31S, W80Y, D84N, S85T
B18: FJ1427_P035MP04E12 (VHH)
VHH: B4 VHH with V2L, V30A, R31S, W80Y, D84N, S85T
B19: FJ1427_P035MP04D11 (VHH)
VHH: EVQLVESGGGLVQAGGSLRLSCAASGRTFGAVAVGWFRQVPGKEREFVAAINRSGSATKYADSVKGRFTISRDNAESPVFLQMNSLKPEDTAVYYCAADSLPYGRPYYFQTSAGEYDYWGQGTQVTVSS
B20: 2-MP01A02 (VHH)
VHH: QVQLVESGGGLVQPGGSLRLSCATSGFTFRNNFMSWVRQAPGKGLEWVSTISYGGESTTYAESVKGRFTISRDNAKNTLYLQMNNLKPEDTAVYYCAKATSYDSIRSGSRGQGTQVTVSS
B21: FJ1427_P035MP01D03 (VHH)
VHH: B20 VHH with Q1E, K43E
B22: FJ1427_P035MP01F03 (VHH)
VHH: B20 VHH with T24A, R30S, I105V
B23: FJ1427_P035MP01C03 (VHH)
VHH: B20 VHH with Q1E
B24: 8-MP01C12 (VHH)
VHH: B20 VHH with R30S, W47F, S63A, V93I, D103T, S107G, G108A, S109P
B25: 6-MP01G05 (VHH)
VHH: QVQLQESGGGLVQAGGSLRLSCAASGRTFSSYAMGWFRQAPGKEREFVAVISWNVDNTEYTDSVKGRFTISRDNDKNMVYLQMNSLKPEDTAVYYCAADSIPLSSDMSPTATEYGYWGQGTQVTVSS
B26: FJ1427_P035MP01B01 (VHH)
VHH: EVQLVESGGGWVQAGDSLRLSCAASGRTFRNYVMGWFRQVPGKEREFLSVITSLGGTVYADSVANRFTISRDNPKDTVYLQMDSLKPEDTAVYYCAADRGPARYISASDVDYWGQGTQVTASS
B27: 1-MP01H01 (VHH)
VHH: EVQLVESGGGLVQAGGSLRLSCAASGRTFRTHNMGWFRRAPGKEREFVAAISWNVDNTLYADSVKGRFTISRDNGRNMVYLQMNSLKPEDTAVYYCAADNIPLSSDVAATATEYDYWGQGTQVTVSS
B28: FJ1427_P035MP01F02 (VHH)
VHH: B27 VHH with E1Q, V5Q, V55I, T58K, F68S, R76G, Y80F, N100K, Y116D
B29: FJ1427_P035MP01G01 (VHH)
VHH: B27 VHH with E1Q, V5Q, G75D, Y95F, A108R, Y114F, D115G, Q122R
B30: FJ1427_P035MP01A01 (VHH)
VHH: EVQLVESGGGLVQAGDSLRLSCAASGRSFRNYILAWYRQAPGKEREFLAAISWLDGTLYADSVEDRFTISRDNPKNTVHLQMDNLKPEDTAVYYCAADRGPVRPVLAPDVDYWGQGTQVSVSS
B31: FJ1427_P035MP01E02 (VHH)
VHH: B30 VHH with E1Q, S120T
B32: 07-MP01G08 (VHH)
VHH: EVQLVESGGGLVQAGGSLRLSCAASGRAFSMYNMGWFRQAPGKEREFVAATGWSGANTPYADSVKGRFTISRDNTQNTVYLQMNSLKPEDTATYYCAADSIRLRSDVTRIPLEYDYWGQGTQVTVSS
B33: 5-MP01F05 (VHH)
VHH: EVQLVESGGGLVQAGGSLRLSCAASIRAFTTWSMAWFRQAPGKEREYVARINVSGSVTYYADFVKGRFTISRDNAKKTMYLEMNNLKPEDTALYYCAADRTGVGTNDYNYWGQGTQVTVSS
B34: FJ1427_P035MP01H02 (VHH)
VHH: QLQLVESGGGLVQAGDSLRLSCAASGRAFSRYAVGWFRMAPGKGREFVSAINSSGANTYVLDSVKGRFTISRDNDKNTAYLQMDSLQPEDTAVYWCAATSSSYSTYEANYNVWGQGTQVTVSS
B35: 3-MP01E03 (VHH)
VHH: QVQLVESGGGLVQAGGSLRLSCTASGRTLSSYSMAWFRQAADKGREFVTAISSSGVVTHVLDSVKGRFTISRDNAKNTVYLQMNSLQPEDTALYFCAGTASSYSTYEANYNYWGQGTLVTVSS

In the first assay the target is T1, mouse IL-2Rγ (mouse). Briefly: PE binding ELISA, periplasmic extract on coated protein. For orientation: In an ELISA, binding on a coated surface is turned into a signal by an enzyme label.
In turn, B1 gave an OD (PE binding ELISA) of 0.05 OD450 nm.
Turning to B2, the OD (PE binding ELISA) worked out at 0.05 OD450 nm.
Molecule B3 gave an OD (PE binding ELISA) of 0.047 OD450 nm.
In turn, B4 displayed an OD (PE binding ELISA) of 0.049 OD450 nm.
On to B5, for which the OD (PE binding ELISA) was 0.054 OD450 nm.
On the same count and under the same terms, the figure for B6 is 0.049 OD450 nm; for B7 it is 0.049 OD450 nm; for B8 it is 0.047 OD450 nm.
Take B9: the OD (PE binding ELISA) came to 0.048 OD450 nm.
Still for that read-out and setting: the figure for B10 is 0.048 OD450 nm.
The same measure, in the same setting: the figure for B11 is 0.047 OD450 nm; for B12 it is 0.047 OD450 nm.
The same measure, in the same setting: the figure for B13 is 0.049 OD450 nm; for B14 it is 0.05 OD450 nm; for B15 it is 0.048 OD450 nm.
With B16, the OD (PE binding ELISA) was determined as 0.049 OD450 nm.
B17 yielded an OD (PE binding ELISA) of 0.048 OD450 nm.
On the same count and under the same terms, for B18 the value was 0.051 OD450 nm; for B19, 0.048 OD450 nm.

For another assay, the target named is T2, mouse IL-2Rα (mouse). Briefly: ELISA, P.E. on coated antigen.
Regarding B20, the OD (PE binding ELISA) came to 0.046 OD450 nm.
With B21, the OD (PE binding ELISA) was 0.048 OD450 nm.
The molecule B22 showed an OD (PE binding ELISA) of 0.045 OD450 nm.
The same measure, in the same setting: the figure for B23 is 0.045 OD450 nm.
B24 returned an OD (PE binding ELISA) of 0.045 OD450 nm.
As for B25, the OD (PE binding ELISA) worked out at 0.046 OD450 nm.
The same measure, in the same setting: the figure for B26 is 0.046 OD450 nm.
B27 gave an OD (PE binding ELISA) of 0.048 OD450 nm.
The same measure, in the same setting: the figure for B28 is 0.046 OD450 nm.
Same read-out and setting: the figure for B29 is 0.053 OD450 nm.
The same measure, in the same setting: for B30 the value was 0.046 OD450 nm; for B31, 0.046 OD450 nm; for B32, 0.046 OD450 nm.
The molecule B33 gave an OD (PE binding ELISA) of 0.046 OD450 nm.
In turn, B34 registered an OD (PE binding ELISA) of 0.047 OD450 nm.
The molecule B35 came in with an OD (PE binding ELISA) of 0.046 OD450 nm.
